Results from IntAct's records for PubMed 31515488.

B1: Kelch-like protein 2 (Homo sapiens), O95198 (parent)
chain: METPPLPPACTKQGHQKPLDSKDDNTEKHCPVTVNPWHMKKAFKVMNELRSQNLLCDVTIVAEDMEISAHRVVLAACSPYFHAMFTGEMSESRAKRVRIKEVDGWTLRMLIDYVYTAEIQVTEENVQVLLPAAGLLQLQDVKKTCCEFLESQLHPVNCLGIRAFADMHACTDLLNKANTYAEQHFADVVLSEEFLNLGIEQVCSLISSDKLTISSEEKVFEAVIAWVNHDKDVRQEFMARLMEHVRLPLLPREYLVQRVEEEALVKNSSACKDYLIEAMKYHLLPTEQRILMKSVRTRLRTPMNLPKLMVVVGGQAPKAIRSVECYDFKEERWHQVAELPSRRCRAGMVYMAGLVFAVGGFNGSLRVRTVDSYDPVKDQWTSVANMRDRRSTLGAAVLNGLLYAVGGFDGSTGLSSVEAYNIKSNEWFHVAPMNTRRSSVGVGVVGGLLYAVGGYDGASRQCLSTVECYNATTNEWTYIAEMSTRRSGAGVGVLNNLLYAVGGHDGPLVRKSVEVYDPTTNAWRQVADMNMCRRNAGVCAVNGLLYVVGGDDGSCNLASVEYYNPTTDKWTVVSSCMSTGRSYAGVTVIDKPL
B2: Vacuolar protein sorting-associated protein 28 homolog (Homo sapiens), Q9UK41-2 (parent)
chain: MFHGIPATPGIGAPGNKPELYEEVKLYKNAREREKYDNMAELFAVVKTMQALEKAYIKDCVSPSEYTAACSRLLVQYKAAFRQVQGSEISSIDEFCRKFRLDCPLAMERIKEDRPITIKDDKGNLNRCIADVVSLFITVMDKLRLEIRAMDEIQPDLRELMETMHRMSHLPPDFEGRQTVSQWWVSLPARQSPAVPETLPARRSPAVPLRPSAPTCPVLHSQAADPERHVGVR
B3: Src kinase-associated phosphoprotein 1 (Homo sapiens), Q86WV1 (parent)
chain: MQAAALPEEIRWLLEDAEEFLAEGLRNENLSAVARDHRDHILRGFQQIKARYYWDFQPQGGDIGQDSSDDNHSGTLGLSLTSDAPFLSDYQDEGMEDIVKGAQELDNVIKQGYLEKKSKDHSFFGSEWQKRWCVVSRGLFYYYANEKSKQPKGTFLIKGYGVRMAPHLRRDSKKESCFELTSQDRRSYEFTATSPAEARDWVDQISFLLKDLSSLTIPYEEDEEEEEKEETYDDIDGFDSPSCGSQCRPTILPGSVGIKEPTEEKEEEDIYEVLPDEEHDLEEDESGTRRKGVDYASYYQGLWDCHGDQPDELSFQRGDLIRILSKEYNMYGWWVGELNSLVGIVPKEYLTTAFEVEER
B4: Angiomotin (Homo sapiens), Q4VCS5 (parent)
chain: MRNSEEQPSGGTTVLQRLLQEQLRYGNPSENRSLLAIHQQATGNGPPFPSGSGNPGPQSDVLSPQDHHQQLVAHAARQEPQGQEIQSENLIMEKQLSPRMQNNEELPTYEEAKVQSQYFRGQQHASVGAAFYVTGVTNQKMRTEGRPSVQRLNPGKMHQDEGLRDLKQGHVRSLSERLMQMSLATSGVKAHPPVTSAPLSPPQPNDLYKNPTSSSEFYKAQGPLPNQHSLKGMEHRGPPPEYPFKGMPPQSVVCKPQEPGHFYSEHRLNQPGRTEGQLMRYQHPPEYGAARPAQDISLPLSARNSQPHSPTSSLTSGGSLPLLQSPPSTRLSPARHPLVPNQGDHSAHLPRPQQHFLPNQAHQGDHYRLSQPGLSQQQQQQQQQHHHHHHHQQQQQQQPQQQPGEAYSAMPRAQPSSASYQPVPADPFAIVSRAQQMVEILSDENRNLRQELEGCYEKVARLQKVETEIQRVSEAYENLVKSSSKREALEKAMRNKLEGEIRRMHDFNRDLRERLETANKQLAEKEYEGSEDTRKTISQLFAKNKESQREKEKLEAELATARSTNEDQRRHIEIRDQALSNAQAKVVKLEEELKKKQVYVDKVEKMQQALVQLQAACEKREQLEHRLRTRLERELESLRIQQRQGNCQPTNVSEYNAAALMELLREKEERILALEADMTKWEQKYLEENVMRHFALDAAATVAAQRDTTVISHSPNTSYDTALEARIQKEEEEILMANKRCLDMEGRIKTLHAQIIEKDAMIKVLQQRSRKEPSKTEQLSCMRPAKSLMSISNAGSGLLSHSSTLTGSPIMEEKRDDKSWKGSLGILLGGDYRAEYVPSTPSPVPPSTPLLSAHSKTGSRDCSTQTERGTESNKTAAVAPISVPAPVAAAATAAAITATAATITTTMVAAAPVAVAAAAAPAAAAAPSPATAAATAAAVSPAAAGQIPAAASVASAAAVAPSAAAAAAVQVAPAAPAPVPAPALVPVPAPAAAQASAPAQTQAPTSAPAVAPTPAPTPTPAVAQAEVPASPATGPGPHRLSIPSLTCNPDKTDGPVFHSNTLERKTPIQILGQEPDAEMVEYLI

Variants of: B1
Conditions: with cul3_human CUL3, Q13618

effect of a mutation on the interaction | Variant
with no effect | V156I

Variants of: B1
Conditions: with zn114_human ZNF114, Q8NC26
Sequence of zn114_human ZNF114, Q8NC26 (Q8NC26 whole entry): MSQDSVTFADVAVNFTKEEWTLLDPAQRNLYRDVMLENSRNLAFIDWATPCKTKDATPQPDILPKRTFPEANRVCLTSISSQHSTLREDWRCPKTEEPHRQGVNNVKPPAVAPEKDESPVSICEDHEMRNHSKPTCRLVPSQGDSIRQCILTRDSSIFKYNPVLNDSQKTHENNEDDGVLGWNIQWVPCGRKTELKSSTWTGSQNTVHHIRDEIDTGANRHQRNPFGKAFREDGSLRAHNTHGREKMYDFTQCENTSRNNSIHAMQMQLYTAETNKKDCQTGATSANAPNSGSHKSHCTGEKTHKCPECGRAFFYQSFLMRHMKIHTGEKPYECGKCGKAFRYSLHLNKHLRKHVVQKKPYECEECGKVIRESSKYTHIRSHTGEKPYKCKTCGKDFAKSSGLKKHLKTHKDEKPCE

effect of a mutation on the interaction | Variant
with no effect | V156I

Variants of: B1
Conditions: with txd12_human TXNDC12, O95881
Sequence of txd12_human TXNDC12, O95881 (O95881 whole entry): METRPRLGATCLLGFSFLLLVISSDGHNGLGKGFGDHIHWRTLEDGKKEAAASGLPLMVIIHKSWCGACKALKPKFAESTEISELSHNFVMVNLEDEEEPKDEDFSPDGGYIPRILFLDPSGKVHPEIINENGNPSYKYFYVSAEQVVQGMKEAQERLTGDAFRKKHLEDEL

effect of a mutation on the interaction | Variant
with no effect | S68A
with no effect | A480T

Variants of: B1
Conditions: with tma16_human TMA16, Q96EY4

effect of a mutation on the interaction | Variant
with no effect | S68A
with no effect | A480T

Variants of: B2
Conditions: with ts101_human TSG101, Q99816

effect of a mutation on the interaction | Variant
with no effect | R203W

Variants of: B3
Conditions: with pram_human PRAM1, Q96QH2
Sequence of pram_human PRAM1, Q96QH2 (Q96QH2 whole entry): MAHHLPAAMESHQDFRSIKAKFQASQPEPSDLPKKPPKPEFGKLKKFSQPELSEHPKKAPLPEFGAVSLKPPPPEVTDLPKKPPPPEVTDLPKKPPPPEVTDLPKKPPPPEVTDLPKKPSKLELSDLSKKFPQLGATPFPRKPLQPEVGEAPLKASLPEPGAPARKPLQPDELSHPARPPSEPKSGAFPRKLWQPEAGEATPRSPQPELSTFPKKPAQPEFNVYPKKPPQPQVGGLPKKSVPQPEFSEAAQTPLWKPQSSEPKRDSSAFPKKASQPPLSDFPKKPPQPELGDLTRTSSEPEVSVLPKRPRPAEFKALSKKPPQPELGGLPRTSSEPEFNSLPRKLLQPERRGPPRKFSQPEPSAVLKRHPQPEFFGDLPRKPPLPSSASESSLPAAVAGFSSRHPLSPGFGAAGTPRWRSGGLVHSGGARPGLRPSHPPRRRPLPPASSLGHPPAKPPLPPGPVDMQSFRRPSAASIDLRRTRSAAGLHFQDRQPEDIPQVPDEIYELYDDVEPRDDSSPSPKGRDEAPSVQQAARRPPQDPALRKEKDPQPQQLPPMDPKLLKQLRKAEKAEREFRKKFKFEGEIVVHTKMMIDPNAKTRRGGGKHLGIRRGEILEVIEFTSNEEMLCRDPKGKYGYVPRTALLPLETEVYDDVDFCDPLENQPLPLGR

effect of a mutation on the interaction | Variant
with no effect | G161S

Variants of: B3
Conditions: with eeig1_human EEIG1, Q5T9C2
Sequence of eeig1_human EEIG1, Q5T9C2 (Q5T9C2 whole entry): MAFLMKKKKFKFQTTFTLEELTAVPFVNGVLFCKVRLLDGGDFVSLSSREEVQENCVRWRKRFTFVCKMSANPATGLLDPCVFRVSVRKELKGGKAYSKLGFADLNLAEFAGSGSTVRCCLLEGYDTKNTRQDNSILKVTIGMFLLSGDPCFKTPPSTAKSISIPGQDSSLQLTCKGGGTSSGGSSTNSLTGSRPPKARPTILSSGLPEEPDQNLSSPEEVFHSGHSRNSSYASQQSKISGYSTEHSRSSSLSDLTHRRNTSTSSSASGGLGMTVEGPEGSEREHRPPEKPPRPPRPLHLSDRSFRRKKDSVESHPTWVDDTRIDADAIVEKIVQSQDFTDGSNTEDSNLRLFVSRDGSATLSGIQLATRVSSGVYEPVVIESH

effect of a mutation on the interaction | Variant
with no effect | S242G

Variants of: B4
Conditions: with maga4_human MAGEA4, P43358
Sequence of maga4_human MAGEA4, P43358 (P43358 whole entry): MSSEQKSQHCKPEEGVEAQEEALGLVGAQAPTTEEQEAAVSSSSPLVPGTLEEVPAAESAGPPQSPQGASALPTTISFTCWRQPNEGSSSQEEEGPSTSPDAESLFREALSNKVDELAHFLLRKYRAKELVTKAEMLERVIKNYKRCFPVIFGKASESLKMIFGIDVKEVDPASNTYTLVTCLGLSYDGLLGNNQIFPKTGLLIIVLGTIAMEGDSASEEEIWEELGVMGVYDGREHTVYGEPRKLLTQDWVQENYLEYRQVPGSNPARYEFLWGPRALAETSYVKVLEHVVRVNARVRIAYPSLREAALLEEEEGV

effect of a mutation on the interaction | Variant
with no effect | T899A

Variants of: B4
Conditions: with UNC119, Q13432

effect of a mutation on the interaction | Variant
with no effect | A556V

Variants of: B4
Conditions: with KRT15, P19012
Sequence of KRT15, P19012 (P19012 whole entry): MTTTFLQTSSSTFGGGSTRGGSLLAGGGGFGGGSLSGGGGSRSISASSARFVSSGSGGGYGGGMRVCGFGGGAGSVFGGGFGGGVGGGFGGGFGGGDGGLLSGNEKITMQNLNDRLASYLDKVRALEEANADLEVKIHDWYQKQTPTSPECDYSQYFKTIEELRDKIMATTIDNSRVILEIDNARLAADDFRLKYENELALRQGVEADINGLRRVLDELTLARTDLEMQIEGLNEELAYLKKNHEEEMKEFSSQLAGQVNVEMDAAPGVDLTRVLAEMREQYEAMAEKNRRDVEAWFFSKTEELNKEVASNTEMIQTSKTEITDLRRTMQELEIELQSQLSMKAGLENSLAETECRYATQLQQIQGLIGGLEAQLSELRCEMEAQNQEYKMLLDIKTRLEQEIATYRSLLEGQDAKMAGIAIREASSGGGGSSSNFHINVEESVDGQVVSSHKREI

effect of a mutation on the interaction | Variant
with no effect | A556V
